Source: article PMC8556680

Experiments:
GST-ZNF410 ZF1-ZF5 [1] = biological target: T1, GST-ZNF410 ZF1-ZF5 (Homo sapiens, UniProt Q86VK4 217-366); experiment: fluorescence polarization
T1 sequence: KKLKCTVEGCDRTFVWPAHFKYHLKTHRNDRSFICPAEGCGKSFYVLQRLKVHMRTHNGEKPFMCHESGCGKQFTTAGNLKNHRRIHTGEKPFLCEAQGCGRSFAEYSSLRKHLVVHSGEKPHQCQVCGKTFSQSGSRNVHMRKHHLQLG

GST-ZNF410 ZF1-ZF5 [2] = biological target: T1, GST-ZNF410 ZF1-ZF5; experiment: fluorescence polarization; remark: listed apart in the source

| Binder | Kd (GST-ZNF410 ZF1-ZF5 [1]) [nM] | binding result (GST-ZNF410 ZF1-ZF5 [2]) |
| --- | --- | --- |
| 17-bp consensus oligo (FAM) (dsDNA) DNA 1: CACATCCCATAATAATG DNA 2: CATTATTATGGGATGTG | 22 | – |
| negative control oligo (FAM) (dsDNA) DNA 1: TCCACTGCCAGGACCTTT DNA 2: AAAAGGTCCTGGCAGTGG | – | no binding |
